# In article PMC6168201 (Neuron, 2018):
# B1: Pcdh15 EC1-3 Asp255Lys/Lys345Asp (domain or fragment)
# chain: not shown
# B2: Pcdh15 EC1-3 (wild type) (domain or fragment)
# chain: not shown
# B3: Pcdh15 EC1-3 Leu138Phe (domain or fragment)
# chain: not shown
# Columns and labels:
# SEC = target: the molecule itself; assay: SEC
# SEC-MALS = target: the molecule itself; assay: SEC-MALS
# AUC = target: the molecule itself; assay: AUC
Protein,stoichiometry N (SEC),stoichiometry N (SEC-MALS),Kd (AUC) [µM]
B1,2,–,–
B2,–,2,1.2
B3,–,–,15.3
